# Laboratory results from publication PMC9083827.
# Several values for one entry are separate records, joined by “and”; a condition that tells them apart may be missing. Equal entries are not always repeated.
# Biological target: TraB_(31-110) (plasmid pIP501 (originally isolated from Streptococcus agalactiae, mainly found in Enterococci))
# Assay: cross-linking; 10 µg TraB_(31-110) in 50 µl with 0/0.001/0.01/0.05/0.1% glutaraldehyde in 50 mM Bicine, 150 mM NaCl, 1 mM DTT, 20 min at room temperature; Tween-20 micelles; SDS-PAGE
substance,measurement,value
TraB_(31-110) (domain or fragment),stoichiometry N,2 and 4
